This note sets out measurements from paper PMC12005765 (Advanced Science, 2025).

pKd: −log10 of the molar value.

Assay in all cases: SPR; IgGs or Fc fusions captured on antihuman Fc polyclonal antibodies amine-coupled to a CM5 chip; spike trimer or CD3 epsilon-delta heterodimer injected; blank flow cell subtracted; 1:1 Langmuir model, simultaneous global fit of ka and kd, KD = kd/ka; BIAcore 2000 (methods) or BIAcore T100 (footnote of Table S3)
(In general: SPR reads the build-up and loss of mass on a sensor chip optically.)

Test [1] deals with SA07, anti-S/CD3 bispecific antibody-like molecule from ACE2-Fc/UCHT1 (UniProt Q9BYF1).
The target in test [2] is SS12, anti-S/CD3 bispecific CrossMab from S3H3/UCHT1.
The target of test [3] is ectodomain of the S trimer from the prototypic SARS-CoV-2 Wuhan-Hu-1 strain (SARS-CoV-2 Wuhan-Hu-1) (UniProt P0DTC2).

Sequence of SS12, anti-S/CD3 bispecific CrossMab from S3H3/UCHT1 (heavy, as listed by the source, chain 1 of 4): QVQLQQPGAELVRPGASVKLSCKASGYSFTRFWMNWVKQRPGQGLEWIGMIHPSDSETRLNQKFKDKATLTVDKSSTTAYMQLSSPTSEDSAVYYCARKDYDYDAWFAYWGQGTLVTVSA
Sequence of SS12, anti-S/CD3 bispecific CrossMab from S3H3/UCHT1 (heavy, as listed by the source, chain 2 of 4): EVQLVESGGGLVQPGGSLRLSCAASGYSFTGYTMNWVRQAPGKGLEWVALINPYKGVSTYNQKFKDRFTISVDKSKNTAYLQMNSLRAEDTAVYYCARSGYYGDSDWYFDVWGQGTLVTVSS
Sequence of SS12, anti-S/CD3 bispecific CrossMab from S3H3/UCHT1 (light, as listed by the source, chain 3 of 4): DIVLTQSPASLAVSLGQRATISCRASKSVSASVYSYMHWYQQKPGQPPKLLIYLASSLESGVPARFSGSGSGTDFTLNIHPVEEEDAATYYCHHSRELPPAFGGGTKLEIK
Sequence of SS12, anti-S/CD3 bispecific CrossMab from S3H3/UCHT1 (light, as listed by the source, chain 4 of 4): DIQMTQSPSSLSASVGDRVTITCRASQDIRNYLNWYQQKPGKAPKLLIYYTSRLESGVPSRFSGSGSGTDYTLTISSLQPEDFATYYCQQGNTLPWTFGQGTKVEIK

With “ectodomain of the S trimer from the prototypic SARS-CoV-2 Wuhan-Hu-1 strain (from UniProt P0DTC2 14-1213) (domain or fragment)”, the pKd is 8.03 in test [1] and 8.21 in test [2].
Regarding “SC02, anti-S/CD3 bispecific CrossMab from CV3-25/UCHT1 (bispecific antibody)”, in test [3], the pKd was 8.32, the koff worked out at 0.00436 s⁻¹ and the kon worked out at 904000 M⁻¹ s⁻¹.

As usually defined, the pKd is the Kd on a negative log10 scale, so that one unit is a factor of ten. The low end stands for a high Kd, the high end for a low Kd. In general, koff refers to a measure of how fast the partners let go of each other. In general, kon refers to the rate constant with which the complex forms. The low end stands for slow association, the high end for fast association.
